Experimental data taken from the DeepSol protein solubility set.

Assay: soluble on expression in E. coli; label from the status in PepcDB or PDB records

Row | Sequence | soluble on expression in E. coli
1 | MERLQKVIARAGIASRRKAEELILQGRVKVNGRVVKELGVKVGPRDDVEVDGIPIEREEPVYYLLYKPRGVISSVKDDRGRKVVTDFFKDLDKRIYPIGRLDYDTSGLLLLTNDGDFANLLMHPRYEIEKVYIAKVKGIPTHEQLKRLEQGVQLEDGMTAPAKVKLLSADRKKGTAIVEIRIHEGRNRQVRRMFEAIGCEVLKLKRERYAFLDLKGLRPGEYRELTPHEVKLLRVLAQSGGRK | soluble
2 | MERMRSIWKGSIAFGLVNVPVKVYSATEDHDIRFHQVHAKDGGRIKYNRVCSECGNVVQYADIDKAYDSDDGVRVVLTDDDFGKLPAAEKHEIPVLQFVPTEQIDPILFEKSYFLEPDSSSPKAYVLLATALENSDRTALVHFTLRQRTRLAAMRSRDGVLVIQTLLWPDEVRVAEFSSLDGVDK | not soluble
3 | MERNELFDLQTLSTRRKIIDRIQVTRMNTGKVDLKTSEFFEQQETQTRSKKKYIWSTGKSKLRRHFFVNRTLPTMKQH | not soluble
4 | MERRLIFGTIASKMSLAPEADLDSLIIRNDSLSGAVIAAIMQEAGLRAVRKNRYVILQSDLEEAYATQVKTDNTVDKFDFYK | soluble
5 | MERVNHLLQRLLGNQRFKQRYEQMKRYILEHPDVQPFLRAHERQLSADAVDRSLMKLYEFIEQHGNCRQCPGLERCNNMLPGYHPNLVVNGGRIDVEYDRCPKKVQHDERKRQESLIQSMFMPREILRASLSDVDLNDDGRIKAIRFAERFVAEYEPGKKMKGLYLHGSFGVGKTYLLAAIANELAKRNVSSLIVYVPELFREIKHSLQDQTMNEKLDYIKKVPVLMLDDLGAEAMSSWVRDDVFGPILQYRMFENLPTFFTSNFDMQQLAHHLTYSQRGEEEKVKAARIMERIRYLAYPIEITGPNRREQNI | not soluble
6 | MERVPLLPRRFSARPQGNQEAQERTAVKCEQVRYAIQEVIGRGAFGEVSSAEVVGTRDLVAIKRVIHDGRLRQRELTLMRDHLGPNTQQGGVSSLDVGNGVGAHATSVTGSNGEEANGTTAIDGLESWNMPTIVPYHPCVVKLLDHFFASDPSGVQYLFMVMDYIPLDVRRLHHMFLRQREQQMPIILVKVIMFQLARALAFLHARGICHRDVKPNNILVDQETGVVKLCDFGSAKKMQAVGGEGPREKNVPYIFSRYYRAPELLLGSQYYHFHVDMWAFGCVLAELLCGKVLFKGSSSTMDQLVEIIKVLGKPSERELFALNPQSAGSALIRTWGDSHNASQLSPTPSGPLPSSNSANADYMQRRSAPRVKSLLWVEVLPPNTSQAALSLIEQLLRYTPEERLTSAEVLEHVFFDELFSDDARLPNGAPLPASMFQVTREEAEILPPWLLERMAAAEGVAKG | soluble
7 | MESCLDIFKIVIGPSSSRTVGPMRAACHFISLLREQETLPLIREIEIELYGALSLSRKCHNVDTALYLGLLGCQPENVDLRSYMAVIKRAENENKIELPLSDAGGITIKVKIIANHQAHPGHPYAMTFRARDDYFTVYEETWFSTGAGQVRKHGEPLTPSLPLRTVSPFEFSHAAQLLALCRRNGLSVAALMMKNELCRHSPQTLQNYLAQIWDVMQQAVYRGLHTEGVLPGPYQVPRRACALHKTLQANRSASDFLTALNWVNAFAIAVSEENASGGQIVTAPTNGACGIIPAALCWYDKFVTPLEPGALTRFFLTAAAIAMLFKQNASILGSEVGCQGEIGVACSMAAAGLAELMGASVEQTLSAAEIAMEHHLGLTCDPLGGQVQIPCIERNAISAVKAINAATMAMSRVSEPCISLDEIIAAMYETGKDMSAKYRETYHGSLGKIQPRKRG | not soluble
8 | MESGFTACISIITGVKSIYRWKNNIEENQEIMCFFKTAEDTSSHSLYRGVITSS | not soluble
9 | MESKNKNGDYVIPDSVKNYDGEPLYILVSLWCKLQEKWISRNDIAEAFGINLRRASFIITYISRRKEKISFRVRYVSYGNLHYKRLEIFIYDVNLEAVPIESPGTTGPKRKTYRVGNGIVGQSNIWNEMIMRRKKES | not soluble
10 | MESRKLISATDIQYSGSLLNSLNEQRGHGLFCDVTVIVEDRKFRAHKNILSASSTYFHQLFSVAGQVVELSFIRAEIFAEILNYIYSSKIVRVRSDLLDELIKSGQLLGVKFIAAL | soluble
11 | MESTIEGEDENYVKVYITDNLDSEHELTIDKNSGDIPYHQCDAYADDANRRTSEENEYNNQARRYAKYYVFAQRGYDTVEHIENPAYVDAVRRAIADLSPAEFKRYFGALYRQLRSHHDDTERPRELPSGVRKPDAVVYEPEIYLGLEAVGEDVAERAQALATAHGFDLEESAEVQPVSELSDETLSRWKAFGDDLAAIVTREDLTTNLTITGVSGLHIGYPNRLGKHEVDEADSPFTHQADARLSLLPYAPESFDEFPAYLDHHLRCQVRDCFLKMGVVPPEEFHVVGFGKFRDSRRYDHFEMYPEVHKRDGNHTPLLG | not soluble
12 | METASITEWTFVQEVPIPEDVANLMVPGEDAVVAFKTFRDSAIFTTKRLIVRDSQGLRGKKVEVYSLPYSSVNMWSTENAGTFDFNAEVELWTRAGKIKIKIGRDLDVRRLDMLLAQCILG | not soluble
13 | METNRPSPDALLVNLQEEADSSVGKLKIYFGFAAGVGKTYAMLSDAKDQLAAGVDVVAGYIEPHAREETLRMLEGIPIIPPKAINHKNIALKEFDLDEALKRKPELILVDELAHTNASGVRNKKRFQDVEELLQAGIDVYTTVNVQHIESLNDIVEGITKVAVRETIPDYVFDEADRVKLIDIEPDELLKRLEQGKIYQPARAKTAMQNFFTRENLKLLREIAMRKAADRI | not soluble
14 | METPSSAKRVTRSQAISAINDSDSDFKVPFSSSNKTEDSSIDQRKEEDRSALIDITNDSPIVGLTMQTPPSGFMVKRKSSRIKITPGSGEALLRGQVKTLLHKVEEGTELIHSIKTRPFIHLVTSPMRLLAPTPANTPQFPNFSDDDVKIKIASPIVAGNLRTSQISEEKEDKRMKKMNVETNQAEFAGKHNRFLYNSEDDEIVEAKEVLHLKGIPTPRGKHFRFATQEE | soluble
15 | METQDVVAKHYDELASEDRATRKSSKILSLRNLNNWVKSVLIALHTRPGYSVLDLACGKGGDLQKWQSQQITQYVGCDISKESLKTAQQRYQQLKKCTFTAQFLCGDCFSCRLSRYLEPDRNFHIVSCQFSMHYAFSCEEKVRRLLENVTERLVAGGFFIGTIPDSNVLVRKLRASSGLEFGNEFYRVVFDDSSSKTFTKPFGIRYHFYLESSVLDIPEYLVVMPVFEKLAKGYGLELQLVMNFHEFITMYLSAGSPFISLFHRMNILQDGGLSPEFWDTAYLYTVFAMKKQGASPWLGLSPESISYVDNTSFERKVIVMMDDEELDSERITFVDKEWNEMIPKRIKLQK | soluble
16 | METQEKKFVPASKQIPTVNSGWLDRELGEAMSEAVRACLAHGKQSEITVKLKIQPQNIQSGTVKISHDVATKLPKEKREGGIVFATPDGNIQADDPAQGKLKLKQVSNTSSTLKMVRSN | not soluble
17 | METTKTNVLEAGAKVLQSNGPVGKLDIYLVGFHPMKDAPEQQMEAHHYCQQVNQDLAQCALYDGNTAEANLTGIEYIISESLFAQLPAQERAFWHPHNGEILSGQLSAPNLPLVAEKELMRSKMNSYGKTWHTWHSRKGTAPGDTLPLGEPMLAWSFSRDGEIQQPLIEQRDKAVTISTAERRADRKDLTELAKPQHGVDALHRHFPEATPIPGVVDAEATAQLEHHHHHH | soluble
18 | MEVFLLKLDSKNCPNKRLKTLEEVPENTAITVGNFDGVHLGHRYLIENLKKKAKSENLKTLVLTFCPHPLKVLAPQLLPCELTDINEKIEIFRELGVDYLCFIRFDKEFAKIRAREFLEKIIYEKLKCRYLLVGYDWRYGYRREGEIELAKEVGSELGFEVEEAKPFKIKGHIVSSTLIRRLLREGRVEEVREYLGHNYWVKRKVVKGDQRGSKIGFPTANLQNTENLCLKEGVYAVKVEDKYLGVANYGYRPTFGKKKRVLEVHILDFEGNLRGKRIKVEFLKFIREEKKFSSVEELIQQIKKDVEAVKGLSKLEHHHHHH | soluble
19 | MEVLKVASNSNPNKVAGALAGVIREKGKAELQAIGAGAVNQAVKAIAIARGYLAPSGINLVCVPAFAEVQINGETRTAIKFIVFPKD | not soluble
20 | MEVLLTETFYTIGRSPRADIRIKSQFVSRIHAVLVRKSSDDVQAAYRIIDGDEDGQSSVNGLMINGKKVQEHIIQTGDEIVMGPQVSVRYEYRRRDQFGTMLEHHHHHH | not soluble
21 | MEVMAQIVLAPHLAGRFDDPDHIRRCIQLYSYRIPANYRRLFDFLFNTEQDFPDCDEFSFFVSVRLNIPTKILNFSEEFGKCVSLHILRKLDVIPPFSKRSQLIILKEVESLKKSIRLCDHMEQCVVAAFQQLLEDEEACIQSVHRLMPVITRSLSQSALEDLINPMIELIQCETSVKLLDRRFLMHVSICYGTHTFLDLFLPPIVEACASMNCDRSVVAKESIMWLAKRYGPVICAKFISSNVLRIMASCYEAFEMVGLEQQPKAVFNVVLQGDETCSRIESLLSEIVLTYSVTFITVQFLPFCVDLIEQFHKRSSVQLEPGLVSVFRIVELSIRSMSDHQLMNYLEEFIIQKVCQLLHSITQKIGTENTRIYANQPFKLMFSTFSEIYETDEELRINLRKRPSENTLFEVPLWMVEDVVDKFAKEWGVPFLSSFCDDPAFLIPFVSNSSSSSSPPASIAHSPPSAFTAYSLGGMSSGNRLFSLSASSPVNSVNSLGGLSFCDSGSLSAVWCARVSAAVCGVDNYRFDHLSLCNYTGHQEKIRKLAAISNENSFVSASSDKTVKLWSIKPELDEIGCQWTYQKHTRPVHDITILADNSIASTDGVLHVWDPFRTTLLAQMEWDSKEGSGGNIMRVENVDRHILSAICSLHSTVKLFDSRVGGWTCELKVSPGPGLTRAITVRDKGNKMAVALSNGTLAILDARNGKINALAQTNSTHTVSVNWLSDTRLLVCDADECGIFLETNPRAHIVRKLQDPSIPKQW | not soluble
22 | MEVPSLFTNFFAVNNPDSPPARQKTKLRELEHRFWQEHLPGDDDDHSTAISSLAIVTGLTKAQVSRISIAFATLADLPELKALQQKLYHLDLSRLITISNELAGINPDNLAGADAILTEYLTATSPNQILPSPASIGRKIKEIRDLLDDARATGSRGTQDDSSFGVTFSPDGTAEIGASVDAVDGHIINDAVTQHAKKNDLTYGEAFSDILRNNIQVKVVLNLYTAKDLANAPVWASGIGWLDAKTGTFWSEKANKEQDMDAAAKISTDKHDPPPALRDALIGRDGTCRFPGCSVPALKTQADHRIPYEEGGETCLGGIGCLCQHHHNMKTDGRVTYLLDPFSGIIVWLMGDGTWAVSEPNGPLNPKNARWAQTVAQHRARHHKRWVKEDAKLEHHHHHH | not soluble
23 | MEVSHVTLEPNKDSRPAVLTIGKFDGVHLGHQTILNTALSIKKENEILTAISFSPHPLWALKQIEIYREMLTPRMEKERWLAHYGVDHLIETAFTPRYAETTPEEFVTDHLSNLQLSHIIVGSEFNFGKGRDSDVDLLRDLCKPYGIGVTSVPVIETNQTKISSTNIRAFIRRGHFLEAEQLLGHP | not soluble
24 | MEVVLHEGDAKDWVYKGEGAANLILSYTGSSPSMLGKVLRVKKILKDKGQPAPNCIVFSSHEEHLWGKIPGLLESVKNDCLPQAYATIVMSQHLGANHVDGGVRVRVSKNFFELAGKNVLDNRPAWRVNASAIDAGADSALLISDHTLFSGNPRGSSCIAVEIKAKCGFLPSSEYISKENSIKKQVTRYKMHQHLKFHLGEISKTSEYDPLDLFSGSKERIHMAIKSFFSTPQNNFRIFVDGSLVFGGMGGGADSVHPNETEKCLEDLSKVTGLQLSDFIELLSEAIFKSGVLGKLLATQKLDDHDIEGAIHLYYNIISQPCLVCKSITDTELLRKYSTLHSLPLDKSEKIVRDFLISATAKDCSLMISFRPRQSGTTDSEYDSVFLDSVNQSYDYKAYFIDLDVKPLDKMVLLPSRENV | soluble
